Numbering of substitutions follows the chain as printed. Numbers in names are those of the source.
T1: human APRIL (5860-AP-010/CF, R&D Systems) (human, UniProt O75888 115-250, limits assumed)
T1 construct: Bought protein
T1 sequence (looked up): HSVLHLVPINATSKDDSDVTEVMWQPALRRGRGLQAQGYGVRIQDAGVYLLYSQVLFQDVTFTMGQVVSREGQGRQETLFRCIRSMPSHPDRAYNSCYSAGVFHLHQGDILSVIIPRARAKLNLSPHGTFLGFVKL

B1: TACI-17Fc (Fc fusion)
chain: SCRKEQGKFYDHLLRDCISCASICGQHPKQCAYFCEDKTHTCPPCPAPEAEGAPSVFLFPPKPKDTLMISRTPEVTCVVVDVSHEDPEVKFNWYVDGVEVHNAKTKPREEQYNSTYRVVSVLTVLHQDWLNGKEYKCKVSNKALPSSIEKTISKAKGQPREPQVYTLPPSRDELTKNQVSLTCLVKGFYPSDIAVEWESNGQPENNYKTTPPVLDSDGSFFLYSKLTVDKSRWQQGNVFSCSVMHEALHNHYTQKSLSLSPGK
notes: Fused directly to Fc; two identical polypeptides
B2: TACI-18Fc (Fc fusion)
chain: CRKEQGKFYDHLLRDCISCASICGQHPKQCAYFCEDKTHTCPPCPAPEAEGAPSVFLFPPKPKDTLMISRTPEVTCVVVDVSHEDPEVKFNWYVDGVEVHNAKTKPREEQYNSTYRVVSVLTVLHQDWLNGKEYKCKVSNKALPSSIEKTISKAKGQPREPQVYTLPPSRDELTKNQVSLTCLVKGFYPSDIAVEWESNGQPENNYKTTPPVLDSDGSFFLYSKLTVDKSRWQQGNVFSCSVMHEALHNHYTQKSLSLSPGK
notes: as for B1
B3: TACI-16Fc (Fc fusion)
chain: LSCRKEQGKFYDHLLRDCISCASICGQHPKQCAYFCEDKTHTCPPCPAPEAEGAPSVFLFPPKPKDTLMISRTPEVTCVVVDVSHEDPEVKFNWYVDGVEVHNAKTKPREEQYNSTYRVVSVLTVLHQDWLNGKEYKCKVSNKALPSSIEKTISKAKGQPREPQVYTLPPSRDELTKNQVSLTCLVKGFYPSDIAVEWESNGQPENNYKTTPPVLDSDGSFFLYSKLTVDKSRWQQGNVFSCSVMHEALHNHYTQKSLSLSPGK
notes: as for B1
B4: TACI-19Fc (Fc fusion)
chain: RKEQGKFYDHLLRDCISCASICGQHPKQCAYFCEDKTHTCPPCPAPEAEGAPSVFLFPPKPKDTLMISRTPEVTCVVVDVSHEDPEVKFNWYVDGVEVHNAKTKPREEQYNSTYRVVSVLTVLHQDWLNGKEYKCKVSNKALPSSIEKTISKAKGQPREPQVYTLPPSRDELTKNQVSLTCLVKGFYPSDIAVEWESNGQPENNYKTTPPVLDSDGSFFLYSKLTVDKSRWQQGNVFSCSVMHEALHNHYTQKSLSLSPGK
notes: as for B1
B5: TACI-21Fc (Fc fusion)
chain: EQGKFYDHLLRDCISCASICGQHPKQCAYFCEDKTHTCPPCPAPEAEGAPSVFLFPPKPKDTLMISRTPEVTCVVVDVSHEDPEVKFNWYVDGVEVHNAKTKPREEQYNSTYRVVSVLTVLHQDWLNGKEYKCKVSNKALPSSIEKTISKAKGQPREPQVYTLPPSRDELTKNQVSLTCLVKGFYPSDIAVEWESNGQPENNYKTTPPVLDSDGSFFLYSKLTVDKSRWQQGNVFSCSVMHEALHNHYTQKSLSLSPGK
notes: as for B1
B6: TACI-20Fc (Fc fusion)
chain: KEQGKFYDHLLRDCISCASICGQHPKQCAYFCEDKTHTCPPCPAPEAEGAPSVFLFPPKPKDTLMISRTPEVTCVVVDVSHEDPEVKFNWYVDGVEVHNAKTKPREEQYNSTYRVVSVLTVLHQDWLNGKEYKCKVSNKALPSSIEKTISKAKGQPREPQVYTLPPSRDELTKNQVSLTCLVKGFYPSDIAVEWESNGQPENNYKTTPPVLDSDGSFFLYSKLTVDKSRWQQGNVFSCSVMHEALHNHYTQKSLSLSPGK
notes: as for B1
B7: TACI-9-5Fc (Fc fusion)
chain: SLSCRKEQGEFYDHLLRDCISCASICGQHPKQCAYFCENKLDKTHTCPPCPAPEAEGAPSVFLFPPKPKDTLMISRTPEVTCVVVDVSHEDPEVKFNWYVDGVEVHNAKTKPREEQYNSTYRVVSVLTVLHQDWLNGKEYKCKVSNKALPSSIEKTISKAKGQPREPQVYTLPPSRDELTKNQVSLTCLVKGFYPSDIAVEWESNGQPENNYKTTPPVLDSDGSFFLYSKLTVDKSRWQQGNVFSCSVMHEALHNHYTQKSLSLSPGK
notes: two identical polypeptides
B8: TACI-9-13Fc (Fc fusion)
chain: B7 chain with L2T, E10K, F36Y
notes: two identical polypeptides
B9: TACI-9-12Fc (Fc fusion)
chain: B7 chain with L2T, E10K, Y35A
notes: two identical polypeptides
B10: TACI-9-8Fc (Fc fusion)
chain: B7 chain with E10K, Y35A
notes: two identical polypeptides
B11: TACI-9-14Fc (Fc fusion)
chain: B7 chain with L2T, E10K, Y35A, F36Y
notes: two identical polypeptides
B12: TACI-9-6Fc (Fc fusion)
chain: B7 chain with L2R, E10K, D18T
notes: two identical polypeptides
B13: TACI-9-15Fc (Fc fusion)
chain: B7 chain with L2T, K6E, Y35A
notes: two identical polypeptides
B14: TACI-9-10Fc (Fc fusion)
chain: B7 chain with K6E
notes: TACI-9 with K6E and K10E, fused to Fc; two identical polypeptides
B15: TACI-9-9Fc (Fc fusion)
chain: B7 chain with L2R, E10K, D18T, Y35R
notes: two identical polypeptides
B16: TACI-9-7Fc (Fc fusion)
chain: B7 chain with L2R, E10K, D18A
notes: two identical polypeptides
B17: TACI-9-11Fc (Fc fusion)
chain: B7 chain with R5S, K6E
notes: two identical polypeptides

Biological target: T2, human BAFF (10056-HNCH, Sino biological) (human, UniProt Q9Y275 134-285)
T2 construct: Bought protein
Experiment: ELISA, BAFF coated, fusion protein titrated
Experimental: (§1) The binding activity of the antibodies or fusion proteins for BAFF, APRIL, and IL-12/23 p40 was assayed by the ELISA method (coating an antigen protein). The specific procedures were as follows:
(§2) A BAFF (Sino biological, 10056-HNCH), APRIL (R&D Systems, 5860-AP-010/CF), or IL-12/23 p40 (Sino biological, 10052-H08H) protein was diluted to 1 μg/mL with a PBS (BasalMedia, B320) buffer at pH 7.4, and added to a 96-well microplate (Corning, 3590) at 100 μL/well. The plate was incubated at 4° C. overnight. After the liquid was discarded, 300 μL of 5% skim milk (BD, 232100) diluted with PBS was added to each well for blocking, and the plate was incubated at 37° C. for 2 h. After the blocking was completed, the blocking solution was discarded, and the plate was washed 3 times with a PBST buffer (PBS at pH 7.4 containing 0.1% tween-20). 100 μL of test antibody or fusion protein solution diluted in a gradient was added to each well, and the plate was incubated at 37° C. for 1 h. After the incubation was completed, the plate was washed 3 times with PBST. […] The plate was washed 3 times with PBST. 100 μL of TMB chromogenic substrate (KPL, 5120-0077) was added to each well, and the plate was incubated at room temperature for 10-15 min. The reaction was stopped by adding 50 μL of 1 M H₂SO₄ to each well. The plate was read for absorbance values at 450 nm on a microplate reader, the binding curves of the antibodies to an antigen were fitted with software, and the EC₅₀ values were calculated.

| Binder | EC50 [nM] |
| --- | --- |
| B1 | 0.996 |
| B2 | 0.992 |
| B3 | 0.599 |
| B4 | 4.99 |
| B5 | 9.8 |
| B6 | 7.19 |

Biological target: T2, human BAFF (10056-HNCH, Sino biological)
Experiment: ELISA, BAFF coated, fusion protein titrated
Remark: another data set of the same source
Experimental: as §1, §2

| Binder | EC50 [nM] |
| --- | --- |
| B7 | 0.146 |
| B8 | 0.433 |
| B9 | 0.122 |
| B10 | 0.2 |
| B11 | 0.223 |
| B12 | 0.367 |
| B13 | 0.0869 |
| B14 | 0.12 |
| B15 | 0.937 |
| B16 | 0.727 |
| B17 | 0.195 |

Biological target: T2, human BAFF (10056-HNCH, Sino biological)
Experiment: competition ELISA: biotin-labeled BAFF to coated BAFF-R
Experimental: The blocking activity of the antibodies and the fusion proteins for receptors and ligands such as BAFF/BAFF-R, BAFF/BCMA, BAFF/TACI, APRIL/BCMA, APRIL/TACI, and p40/IL-12R1 was assayed by the ELISA method. The specific procedures were as follows:
A receptor protein was diluted to 2 μg/mL with PBS at pH 7.4 (BasalMedia, B320) and added to a 96-well microplate (Corning, 3590) at 100 μL/well. The plate was incubated at 4° C. overnight. After the liquid was discarded, 200 μL of 1% Casein blocking solution (Thermo, 37528) was added to each well for blocking, and the plate was incubated at 37° C. for 2 h. After the blocking was completed, the blocking solution was discarded, and the plate was washed 3 times with a PBST buffer (PBS at pH 7.4 containing 0.1% tween-20) for later use. A biotin-labeled ligand protein at a fixed concentration was mixed with the antibody or fusion protein diluted in gradient, pre-incubated at 37° C. for 30 min, and added to a blocked microplate. The plate was incubated at 37° C. for 1.5 h. After the incubation was completed, the plate was washed 3 times with PBST. 100 μL of streptavidin-HRP (Invitrogen, 434323, diluted at a ratio of 1:4000) was added to each well, and the plate was incubated at 37° C. for 1 h. The supernatant was removed, and the plate was washed 3 times with PBST. 100 μL of TMB chromogenic substrate (KPL, 5120-0077) was added to each well, and the plate was incubated at room temperature for 10-15 min. The reaction was stopped by adding 50 μL of 1 M H₂SO₄ to each well. The plate was read for absorbance values at 450 nm on a microplate reader, the curves for the inhibition of the binding of the ligands to the receptors were fitted with software, and the IC₅₀ values were calculated.

| Binder | IC50 [nM] |
| --- | --- |
| B1 | 2.82 |
| B2 | 3.26 |
| B3 | 2.22 |
| B4 | 2220 |
| B5 | 2520 |
| B6 | 2360 |

Biological target: T1, human APRIL (5860-AP-010/CF, R&D …)
Experiment: SPR (Biacore), sample captured on Protein A, antigen flowed, 1:1 fit
Experimental: A certain amount of test sample was subjected to affinity capture by a biosensor chip Protein A (GE, 29127556), then antigens at a series of concentration gradients were allowed to flow on the surface of the chip. The reaction signals were detected in real time by using Biacore (GE, 8K) to obtain association and dissociation curves. After the dissociation was completed for each cycle, the biochip was washed and regenerated with a 10 mM glycine-hydrochloric acid solution at pH 1.5 (GE, BR-1003-54). The experimental data were fitted using BIAevaluation version 4.1, GE software with a 1:1 model to obtain affinity values. The related antigen proteins used in this assay are as follows: human IL-23 (CT048-H08H, Sino biological), human IL-12 (CT050-H08H, Sino biological), human BAFF (10056-HNCH, Sino biological), human APRIL (5860-AP-010/CF, R&D Systems), cynomolgus monkey p40 (10215-CL, R&D Systems), cynomolgus monkey BAFF (BAF-CM412B, Kactus), cynomolgus monkey APRIL (APR-CM410B, Kactus), mouse BAFF (BAF-M521y, Acro Biosystems), and mouse APRIL (7907-AP/CF, R&D Systems).

| Binder | Kd [nM] | koff [s⁻¹] | kon [M⁻¹ s⁻¹] |
| --- | --- | --- | --- |
| B13 | 0.0125 | 9.6e-05 | 7.67e+06 |
| B14 | 0.0128 | 0.000112 | 8.75e+06 |

Biological target: T2, human BAFF (10056-HNCH, Sino biological)
Experiment: as above

| Binder | Kd [nM] | koff [s⁻¹] | kon [M⁻¹ s⁻¹] |
| --- | --- | --- | --- |
| B13 | 0.0773 | 2.12e-05 | 274000 |
| B14 | 0.081 | 1.89e-05 | 234000 |

From patent US20240301031A1 (JIANGSU HENGRUI PHARMACEUTICALS, published 2024)
